Measurements: ChEMBL document CHEMBL4673265, “The food-grade antimicrobial xanthorrhizol targets the enoyl-ACP reductase (FabI) in Escherichia coli” (Bioorg Med Chem Lett, 2020)
Values after ≈ are worked out from the molar mass of the structure shown.

How the values were obtained:
[1] = tested on: Escherichia coli; experiment: Antimicrobial activity against Escherichia coli ATCC 35218; format: functional
[2] = tested on: Mycobacterium tuberculosis; experiment: Antibacterial activity against Mycobacterium tuberculosis H37Rv ATCC 27294 incubated for 7 days by microplate alamar blue assay; format: functional; details: 168 h, time 7 day
[3] = target: T1, Enoyl-[acyl-carrier-protein] reductase [NADH] FabI (Escherichia coli K-12, UniProt P0AEK4); experiment: Inhibition of Escherichia coli FabI using trans-2-[…]-N-acetylcysteamine as substrate by spectrophotometry
T1 sequence (P0AEK4 whole entry): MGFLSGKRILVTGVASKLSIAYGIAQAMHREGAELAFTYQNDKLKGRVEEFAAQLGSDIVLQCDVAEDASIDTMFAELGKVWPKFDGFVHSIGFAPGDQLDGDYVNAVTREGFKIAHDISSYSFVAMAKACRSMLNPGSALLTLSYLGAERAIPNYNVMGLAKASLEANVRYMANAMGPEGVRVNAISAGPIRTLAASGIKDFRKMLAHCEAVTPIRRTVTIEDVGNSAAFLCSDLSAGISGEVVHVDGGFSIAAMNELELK

[4] = tested on: Escherichia coli; experiment: Antimicrobial activity against Escherichia coli W3110 imp4213 assessed as absence of growth; format: functional
[5] = tested on: Escherichia coli; experiment: Antimicrobial activity against Escherichia coli W3110 imp4213 expressing pCA24N mutant assessed as absence of growth; format: functional
[6] = tested on: Escherichia coli; experiment: Antimicrobial activity against Escherichia coli W3110 imp4213 expressing fabI G93V mutant assessed as absence of growth; format: functional
[7] = tested on: Escherichia coli; experiment: Antimicrobial activity against Escherichia coli W3110 imp4213 expressing pCA24N-fabI mutant assessed as absence of growth; format: functional
[8] = tested on: Escherichia coli; experiment: Antimicrobial activity against Escherichia coli W3110 imp4213 expressing pCA24N-fab/ Y156V mutant assessed as absence of growth; format: functional
[9] = tested on: Escherichia coli; experiment: Antimicrobial activity against Escherichia coli W3110 imp4213 expressing pCA24N-fab F203L mutant assessed as absence of growth; format: functional
[10] = tested on: Escherichia coli; experiment: Antimicrobial activity against Escherichia coli W3110 imp4213 expressing pCA24N-fab F204V mutant assessed as absence of growth; format: functional
[11] = tested on: Escherichia coli; experiment: Antimicrobial activity against Escherichia coli W3110 imp4213 expressing fabI392 mutant assessed as absence of growth; format: functional
[12] = tested on: Escherichia coli; experiment: Antibacterial activity against Escherichia coli BW25113 assessed as effect on growth rate per hour at 0.128 uM incubated for 24 hrs by microplate reader; format: functional
[13] = tested on: Staphylococcus aureus; experiment: Antimicrobial activity against Staphylococcus aureus assessed as complete inhibition of growth after 24 hrs by broth microdilution method; format: functional
[14] = Inhibition of Staphylococcus aureus FabI assessed as incorporation of [1-14C]acetate to L-[U-14C]leucine
[15] = compound: NC(=O)C1=CN([C@@H]2O[C@H](COP(=O)(O)OP(=O)(O)OC[C@H]3O[C@@H](n4cnc5c(N)ncnc54)[C@H](O)[C@@H]3O)[C@@H](O)[C@H]2O)C=CC1; experiment: Inhibition of wild-type Escherichia coli FabI catalytic activity
[16] = compound: NC(=O)C1=CN([C@@H]2O[C@H](COP(=O)(O)OP(=O)(O)OC[C@H]3O[C@@H](n4cnc5c(N)ncnc54)[C@H](O)[C@@H]3O)[C@@H](O)[C@H]2O)C=CC1; experiment: Inhibition of wild-type Escherichia coli FabI assessed as reduction in Km
[17] = compound: NC(=O)C1=CN([C@@H]2O[C@H](COP(=O)(O)OP(=O)(O)OC[C@H]3O[C@@H](n4cnc5c(N)ncnc54)[C@H](O)[C@@H]3O)[C@@H](O)[C@H]2O)C=CC1; experiment: Inhibition of wild-type Escherichia coli FabI assessed as ratio of Kcat/Km
[18] = compound: NC(=O)C1=CN([C@@H]2O[C@H](COP(=O)(O)OP(=O)(O)OC[C@H]3O[C@@H](n4cnc5c(N)ncnc54)[C@H](O)[C@@H]3O)[C@@H](O)[C@H]2O)C=CC1; experiment: Inhibition of Escherichia coli FabI F203L mutant catalytic activity
[19] = compound: NC(=O)C1=CN([C@@H]2O[C@H](COP(=O)(O)OP(=O)(O)OC[C@H]3O[C@@H](n4cnc5c(N)ncnc54)[C@H](O)[C@@H]3O)[C@@H](O)[C@H]2O)C=CC1; experiment: Inhibition of Escherichia coli FabI F203L mutant assessed as reduction in Km
[20] = compound: NC(=O)C1=CN([C@@H]2O[C@H](COP(=O)(O)OP(=O)(O)OC[C@H]3O[C@@H](n4cnc5c(N)ncnc54)[C@H](O)[C@@H]3O)[C@@H](O)[C@H]2O)C=CC1; experiment: Inhibition of Escherichia coli FabI F203L mutant assessed as ratio of Kcat/Km
[21] = compound: NC(=O)C1=CN([C@@H]2O[C@H](COP(=O)(O)OP(=O)(O)OC[C@H]3O[C@@H](n4cnc5c(N)ncnc54)[C@H](O)[C@@H]3O)[C@@H](O)[C@H]2O)C=CC1; experiment: Inhibition of Escherichia coli FabI F203V mutant catalytic activity
[22] = compound: NC(=O)C1=CN([C@@H]2O[C@H](COP(=O)(O)OP(=O)(O)OC[C@H]3O[C@@H](n4cnc5c(N)ncnc54)[C@H](O)[C@@H]3O)[C@@H](O)[C@H]2O)C=CC1; experiment: Inhibition of Escherichia coli FabI F203V mutant assessed as reduction in Km
[23] = compound: NC(=O)C1=CN([C@@H]2O[C@H](COP(=O)(O)OP(=O)(O)OC[C@H]3O[C@@H](n4cnc5c(N)ncnc54)[C@H](O)[C@@H]3O)[C@@H](O)[C@H]2O)C=CC1; experiment: Inhibition of Escherichia coli FabI F203V mutant assessed as ratio of Kcat/Km
[24] = compound: NC(=O)C1=CN([C@@H]2O[C@H](COP(=O)(O)OP(=O)(O)OC[C@H]3O[C@@H](n4cnc5c(N)ncnc54)[C@H](O)[C@@H]3O)[C@@H](O)[C@H]2O)C=CC1; experiment: Inhibition of Escherichia coli FabI Y156V mutant catalytic activity
[25] = compound: NC(=O)C1=CN([C@@H]2O[C@H](COP(=O)(O)OP(=O)(O)OC[C@H]3O[C@@H](n4cnc5c(N)ncnc54)[C@H](O)[C@@H]3O)[C@@H](O)[C@H]2O)C=CC1; experiment: Inhibition of Escherichia coli FabI Y156V mutant assessed as reduction in Km
[26] = compound: NC(=O)C1=CN([C@@H]2O[C@H](COP(=O)(O)OP(=O)(O)OC[C@H]3O[C@@H](n4cnc5c(N)ncnc54)[C@H](O)[C@@H]3O)[C@@H](O)[C@H]2O)C=CC1; experiment: Inhibition of Escherichia coli FabI Y156V mutant assessed as ratio of Kcat/Km
[27] = compound: NC(=O)C1=CN([C@@H]2O[C@H](COP(=O)(O)OP(=O)(O)OC[C@H]3O[C@@H](n4cnc5c(N)ncnc54)[C@H](O)[C@@H]3O)[C@@H](O)[C@H]2O)C=CC1; experiment: Inhibition of Escherichia coli FabI G93V mutant catalytic activity
[28] = compound: NC(=O)C1=CN([C@@H]2O[C@H](COP(=O)(O)OP(=O)(O)OC[C@H]3O[C@@H](n4cnc5c(N)ncnc54)[C@H](O)[C@@H]3O)[C@@H](O)[C@H]2O)C=CC1; experiment: Inhibition of Escherichia coli FabI G93V mutant assessed as reduction in Km
[29] = compound: NC(=O)C1=CN([C@@H]2O[C@H](COP(=O)(O)OP(=O)(O)OC[C@H]3O[C@@H](n4cnc5c(N)ncnc54)[C@H](O)[C@@H]3O)[C@@H](O)[C@H]2O)C=CC1; experiment: Inhibition of Escherichia coli FabI G93V mutant assessed as ratio of Kcat/Km
[30] = compound: CC(C)=CCC[C@@H](C)c1ccc(C)c(O)c1; experiment: Uncompetitive inhibition of Escherichia coli FabI G93V mutant assessed inhibition constant using NADH as substrate by Lineweaver-Burk analysis

Question: What does the source list for C=C1C(=O)OCC1C/C=C(\C)CC(=O)C=C(C)C (stereo not given) [ANTHECOTULIDE]?
Answer: MIC [1]: 25 µg/mL (≈ 101 µM); MIC [2]: 20.2 µg/mL (≈ 81.3 µM)

Question: Which IC50 [3] does the source give for O=C(O[C@@H]1Cc2c(O)cc(O)cc2O[C@@H]1c1cc(O)c(O)c(O)c1)c1cc(O)c(O)c(O)c1 [EPIGALOCATECHIN GALLATE] here?
Answer: 5 µM

Question: With Oc1cc(Cl)ccc1Oc1ccc(Cl)cc1Cl [TRICLOSAN] as the molecule, how does the MIC [4] read?
Answer: 0.02 µg/mL (≈ 0.0691 µM)

Question: What about the MIC [5] of the same molecule?
Answer: 0.02 µg/mL (≈ 0.0691 µM)

Question: And the MIC [6]?
Answer: > 1.28 µg/mL

Question: What about the MIC [7] of the same molecule?
Answer: 0.512 µg/mL (≈ 1.77 µM)

Question: And the MIC [8]?
Answer: 2.05 µg/mL (≈ 7.07 µM)

Question: What about the MIC [9] of the same molecule?
Answer: > 2.05 µg/mL

Question: And the MIC [10]?
Answer: 2.05 µg/mL (≈ 7.07 µM)

Question: And the MIC [11]?
Answer: 0.002 µg/mL (≈ 0.00691 µM)

Question: And the Activity [12]?
Answer: 0.4

Question: Which results are given for CC(=O)c1cc2c(=O)c3c(C(=O)O)c(O)c(O)cc3oc2c(C(C)=O)c1-c1coc2cc(O)c(O)c(C(=O)O)c2c1=O [VINAXANTHONE]?
Answer: MIC [13]: 32 µg/mL (≈ 55.5 µM); IC50 [14]: 0.9 µM

B1: Enoyl-[acyl-carrier-protein] reductase [NADH] FabI (Escherichia coli K-12), P0AEK4 (protein)
chain: MGFLSGKRILVTGVASKLSIAYGIAQAMHREGAELAFTYQNDKLKGRVEEFAAQLGSDIVLQCDVAEDASIDTMFAELGKVWPKFDGFVHSIGFAPGDQLDGDYVNAVTREGFKIAHDISSYSFVAMAKACRSMLNPGSALLTLSYLGAERAIPNYNVMGLAKASLEANVRYMANAMGPEGVRVNAISAGPIRTLAASGIKDFRKMLAHCEAVTPIRRTVTIEDVGNSAAFLCSDLSAGISGEVVHVDGGFSIAAMNELELK
Question: Which kcat [15] does the source give for B1 here?
Answer: 10.8 s⁻¹

Question: What about the Km [16] of the same molecule?
Answer: 70.2 µM

Question: And the kcat/Km [17]?
Answer: 150000 M⁻¹ s⁻¹

B2: Enoyl-[acyl-carrier-protein] reductase [NADH] FabI (Escherichia coli K-12), P0AEK4 F203L (protein)
chain: MGFLSGKRILVTGVASKLSIAYGIAQAMHREGAELAFTYQNDKLKGRVEEFAAQLGSDIVLQCDVAEDASIDTMFAELGKVWPKFDGFVHSIGFAPGDQLDGDYVNAVTREGFKIAHDISSYSFVAMAKACRSMLNPGSALLTLSYLGAERAIPNYNVMGLAKASLEANVRYMANAMGPEGVRVNAISAGPIRTLAASGIKDLRKMLAHCEAVTPIRRTVTIEDVGNSAAFLCSDLSAGISGEVVHVDGGFSIAAMNELELK
Question: For B2, which kcat [18] is on record?
Answer: 3.65 s⁻¹

Question: And the Km [19]?
Answer: 51.5 µM

Question: And the kcat/Km [20]?
Answer: 70000 M⁻¹ s⁻¹

B3: Enoyl-[acyl-carrier-protein] reductase [NADH] FabI (Escherichia coli K-12), P0AEK4 F203V (protein)
chain: MGFLSGKRILVTGVASKLSIAYGIAQAMHREGAELAFTYQNDKLKGRVEEFAAQLGSDIVLQCDVAEDASIDTMFAELGKVWPKFDGFVHSIGFAPGDQLDGDYVNAVTREGFKIAHDISSYSFVAMAKACRSMLNPGSALLTLSYLGAERAIPNYNVMGLAKASLEANVRYMANAMGPEGVRVNAISAGPIRTLAASGIKDVRKMLAHCEAVTPIRRTVTIEDVGNSAAFLCSDLSAGISGEVVHVDGGFSIAAMNELELK
Question: Which results are given for B3?
Answer: kcat [21]: 0.38 s⁻¹; Km [22]: 44.2 µM; kcat/Km [23]: 9000 M⁻¹ s⁻¹

B4: Enoyl-[acyl-carrier-protein] reductase [NADH] FabI (Escherichia coli K-12), P0AEK4 Y156V (protein)
chain: MGFLSGKRILVTGVASKLSIAYGIAQAMHREGAELAFTYQNDKLKGRVEEFAAQLGSDIVLQCDVAEDASIDTMFAELGKVWPKFDGFVHSIGFAPGDQLDGDYVNAVTREGFKIAHDISSYSFVAMAKACRSMLNPGSALLTLSYLGAERAIPNVNVMGLAKASLEANVRYMANAMGPEGVRVNAISAGPIRTLAASGIKDFRKMLAHCEAVTPIRRTVTIEDVGNSAAFLCSDLSAGISGEVVHVDGGFSIAAMNELELK
Question: For B4, which kcat [24] is on record?
Answer: 0.16 s⁻¹

Question: What about the Km [25] of the same molecule?
Answer: 41.7 µM

Question: What about the kcat/Km [26] of the same molecule?
Answer: 4000 M⁻¹ s⁻¹

B5: Enoyl-[acyl-carrier-protein] reductase [NADH] FabI (Escherichia coli K-12), P0AEK4 G93V (protein)
chain: MGFLSGKRILVTGVASKLSIAYGIAQAMHREGAELAFTYQNDKLKGRVEEFAAQLGSDIVLQCDVAEDASIDTMFAELGKVWPKFDGFVHSIVFAPGDQLDGDYVNAVTREGFKIAHDISSYSFVAMAKACRSMLNPGSALLTLSYLGAERAIPNYNVMGLAKASLEANVRYMANAMGPEGVRVNAISAGPIRTLAASGIKDFRKMLAHCEAVTPIRRTVTIEDVGNSAAFLCSDLSAGISGEVVHVDGGFSIAAMNELELK
Question: Which kcat [27] does the source give for B5 here?
Answer: 3.44 s⁻¹

Question: What about the Km [28] of the same molecule?
Answer: 30.9 µM

Question: And the kcat/Km [29]?
Answer: 110000 M⁻¹ s⁻¹

Question: What about the Ki [30] of the same molecule?
Answer: 4.1 µM
